Results on nine molecules are retold here after US20250236682A1 (CENTENAIRE BIOSCIENCES, published 2025).

Experiment [1] addresses T1, human HER2 recombinant protein (R&D systems, 1129-ER) (human, UniProt P04626 23-652).
T1 construct: extracellular domain; also called HER2 antigen; HER2 extracellular domain (ECD)
Description: BLI, HER2 on HIS1K sensor.

Experiment [2] concerns the target T2, human FcγRI (R&D systems, 1257-FC) (human, UniProt P12314 16-288).
T2 construct: bought; also called FcγRI(CD64); Fcγ receptor 1
Description: BLI, His-FcγRI on HIS1K sensor. A general note: BLI is a label-free optical method that tracks binding on a fibre tip over time.

The target in experiment [3] is T3, human FcγRIIIA (176V isoform, R&D systems, 4325-FC) (human, UniProt P08637 17-208).
T3 construct: bought; also called FcγRIIIA(CD16A, 176V); Fcγ receptor 3A (176V isoform)
Description: BLI, His-FcγRIIIA on HIS1K sensor.

Experiment [4] concerns the target T1, human HER2 recombinant protein (R&D …). Description: BLI, HER2 on HIS1K sensor, 1 to 32 nM antibody.
Experiment [5] concerns the target T4, neonatal Fc receptor (FcRn) (Homo sapiens (Human), UniProt P55899 24-297; P61769 21-119).
T4 construct: analyte in solution at pH 6.0; copies: 1 + 1
Description: BLI, antibody on FAB2G sensor, FcRn analyte, pH 6.0.

T3 sequence (P08637 17-208 F176V limits assumed): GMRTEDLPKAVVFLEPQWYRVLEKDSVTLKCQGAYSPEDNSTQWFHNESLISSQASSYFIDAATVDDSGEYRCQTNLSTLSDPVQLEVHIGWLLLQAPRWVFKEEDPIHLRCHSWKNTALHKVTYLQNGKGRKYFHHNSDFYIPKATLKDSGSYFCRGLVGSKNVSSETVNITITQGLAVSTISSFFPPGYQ
T2 sequence (P12314 16-288 limits assumed): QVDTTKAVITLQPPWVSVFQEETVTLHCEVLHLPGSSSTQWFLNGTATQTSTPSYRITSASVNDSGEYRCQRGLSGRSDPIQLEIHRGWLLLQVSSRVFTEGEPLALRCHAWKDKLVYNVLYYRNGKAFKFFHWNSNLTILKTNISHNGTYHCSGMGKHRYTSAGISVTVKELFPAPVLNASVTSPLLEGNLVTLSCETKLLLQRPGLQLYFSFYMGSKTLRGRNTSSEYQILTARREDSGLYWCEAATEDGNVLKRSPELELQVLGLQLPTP
T4 sequence (P55899 24-297 limits assumed, form in doubt, chain 1 of 2): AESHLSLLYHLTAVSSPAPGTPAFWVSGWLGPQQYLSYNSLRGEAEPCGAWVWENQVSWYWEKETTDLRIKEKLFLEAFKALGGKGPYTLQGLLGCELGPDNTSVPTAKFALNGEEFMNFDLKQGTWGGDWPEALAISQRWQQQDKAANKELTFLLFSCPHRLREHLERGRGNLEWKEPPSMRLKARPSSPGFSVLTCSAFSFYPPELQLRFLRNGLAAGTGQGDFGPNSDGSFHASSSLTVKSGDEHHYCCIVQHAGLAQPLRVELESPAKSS
T4 sequence (P61769 21-119 limits assumed, form in doubt, chain 2 of 2): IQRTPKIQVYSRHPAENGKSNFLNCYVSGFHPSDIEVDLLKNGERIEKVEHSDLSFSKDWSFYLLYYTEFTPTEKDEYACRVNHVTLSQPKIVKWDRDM

B1: H01Fv1 (antibody, human IgG1)
heavy: not shown
light: not shown
chain: DKTHTCPPCPAPELLGGPSVFLFPPKPKDTLMISRTPEVTCVVVDVSHEDPEVKFNWYVDGVEVHNAKTKPREEQYNSTYRVVSVLTVLHQDWLNGKEYKCKVSNKALPAPIEKTISKAKGQPREPQVCTLPPSREEMTKNQVSLSCAVKGFYPSDIAVEWESNGQPENNYKTTPPVLDSDGSFFLVSKLTVDKSRWQQGNVFSCSVMHEALHNRFTQKSLSLSPGK
notes: also called Fv-(Fc)2, VH G44C / VL Q100C
Regarding B1, in experiment [1], the Kd (usually the constant that tells how readily two partners part at equilibrium) stood at 0.244 nM; the koff (as a rule, a measure of how fast the partners let go of each other) stood at 5.11e-05 s⁻¹; the kon (as a rule, the rate constant with which the complex forms) turned out to be 210000 M⁻¹ s⁻¹.

B2: H01Fv7 (antibody, human IgG1, kappa)
heavy: not shown
light: not shown
chain: DKTHTCPPCPAPELLGGPSVFLFPPKPKDTLMISRTPEVTCVVVDVSHEDPEVKFNWYVDGVEVHNAKTKPREEQYNSTYRVVSVLTVLHQDWLNGKEYKCKVSNKALPAPIEKTISKAKGQPREPQVCTLPPSREEMTKNQVSLSCAVKGFYPSDIAVEWESNGQPENNYKTTPPVLDSDGSFFLVSKLTVDKSRWQQGNVFSCSVMHEALHNRFTQKSLSLSPGK
notes: also called Fv-(Fc)2, VH G44C, Q105C, F126C / VL Q100C, A43C, S121C
With B2, in experiment [1], the Kd is 0.279 nM, the koff is 7.7e-05 s⁻¹ and the kon came to 276000 M⁻¹ s⁻¹.

B3: H01Fv4 (antibody, human IgG1)
heavy: not shown
light: not shown
chain: DKTHTCPPCPAPELLGGPSVFLFPPKPKDTLMISRTPEVTCVVVDVSHEDPEVKFNWYVDGVEVHNAKTKPREEQYNSTYRVVSVLTVLHQDWLNGKEYKCKVSNKALPAPIEKTISKAKGQPREPQVCTLPPSREEMTKNQVSLSCAVKGFYPSDIAVEWESNGQPENNYKTTPPVLDSDGSFFLVSKLTVDKSRWQQGNVFSCSVMHEALHNRFTQKSLSLSPGK
notes: also called Fv-(Fc)2, VH G44C, Q105C / VL Q100C, A43C
As to B3, in experiment [1], the Kd amounted to 0.326 nM, the koff was 7.71e-05 s⁻¹ and the kon was determined as 237000 M⁻¹ s⁻¹.

B4: H01Fv2 (antibody, human IgG1)
heavy: not shown
light: not shown
chain: DKTHTCPPCPAPELLGGPSVFLFPPKPKDTLMISRTPEVTCVVVDVSHEDPEVKFNWYVDGVEVHNAKTKPREEQYNSTYRVVSVLTVLHQDWLNGKEYKCKVSNKALPAPIEKTISKAKGQPREPQVCTLPPSREEMTKNQVSLSCAVKGFYPSDIAVEWESNGQPENNYKTTPPVLDSDGSFFLVSKLTVDKSRWQQGNVFSCSVMHEALHNRFTQKSLSLSPGK
notes: also called Fv-(Fc)2, VH Q105C / VL A43C
B4: in experiment [1], the dissociation constant Kd turned out to be 0.324 nM, the koff is 3.78e-05 s⁻¹ and the kon is 117000 M⁻¹ s⁻¹.

B5: P01DE4 (antibody, human IgG1, kappa)
heavy: not shown
light: not shown
chain: DKTHTCPPCPAPELLGGPDVFLFPPKPKDTLMISRTPEVTCVVVDVSHEDPEVKFNWYVDGVEVHNAKTKPREEQYNSTYRVVSVLTVLHQDWLNGKEYKCKVSNKALPAPEEKTISKAKGQPREPQVCTLPPSREEMTKNQVSLSCAVKGFYPSDIAVEWESNGQPENNYKTTPPVLDSDGSFFLVSKLTVDKSRWQQGNVFSCSVMHEALHNHYTQKSLSLSPGK
notes: monovalent Fab-(Fc)2; also called P01 with S239D and I332E in all Fc chains
In the case of B5, in experiment [2], the Kd was determined as 0.038 nM, the koff is 2.85e-05 s⁻¹ and the kon is 748000 M⁻¹ s⁻¹. In experiment [3], this molecule registered a Kd of 0.33 nM, a koff of 0.000159 s⁻¹ and a kon of 478000 M⁻¹ s⁻¹. Besides, in experiment [4], the Kd turned out to be 0.224 nM, the koff came to 5.51e-05 s⁻¹ and the kon was 246000 M⁻¹ s⁻¹.

B6: H01Fv6 (antibody, human IgG1, kappa)
heavy: not shown
light: not shown
chain: DKTHTCPPCPAPELLGGPSVFLFPPKPKDTLMISRTPEVTCVVVDVSHEDPEVKFNWYVDGVEVHNAKTKPREEQYNSTYRVVSVLTVLHQDWLNGKEYKCKVSNKALPAPIEKTISKAKGQPREPQVCTLPPSREEMTKNQVSLSCAVKGFYPSDIAVEWESNGQPENNYKTTPPVLDSDGSFFLVSKLTVDKSRWQQGNVFSCSVMHEALHNRFTQKSLSLSPGK
notes: also called Fv-(Fc)2, VH Q105C, F126C / VL A43C, S121C
For B6, in experiment [1], the Kd was 0.0487 nM, the koff is 6.61e-06 s⁻¹ and the kon came to 136000 M⁻¹ s⁻¹.

B7: H01DE4 (antibody, human IgG1, kappa)
heavy: not shown
light: not shown
chain: DKTHTCPPCPAPELLGGPDVFLFPPKPKDTLMISRTPEVTCVVVDVSHEDPEVKFNWYVDGVEVHNAKTKPREEQYNSTYRVVSVLTVLHQDWLNGKEYKCKVSNKALPAPEEKTISKAKGQPREPQVCTLPPSREEMTKNQVSLSCAVKGFYPSDIAVEWESNGQPENNYKTTPPVLDSDGSFFLVSKLTVDKSRWQQGNVFSCSVMHEALHNHYTQKSLSLSPGK
notes: monovalent Fab-(Fc)2; also called H01 with S239D and I332E in all Fc chains
Consider B7, for which the dissociation constant Kd is 0.036 nM in experiment [2], 0.1 nM in experiment [3] and 0.145 nM in experiment [4]. The koff in experiment [2] is 3.06e-05 s⁻¹; in experiment [3], 5.51e-05 s⁻¹; in experiment [4] it was 3.73e-05 s⁻¹. Also, the values for the kon in experiment [2], in experiment [3] and in experiment [4] were 852000 M⁻¹ s⁻¹, 526000 M⁻¹ s⁻¹ and 258000 M⁻¹ s⁻¹, respectively.

B8: H01Fv5 (antibody, human IgG1, kappa)
heavy: not shown
light: not shown
chain: DKTHTCPPCPAPELLGGPSVFLFPPKPKDTLMISRTPEVTCVVVDVSHEDPEVKFNWYVDGVEVHNAKTKPREEQYNSTYRVVSVLTVLHQDWLNGKEYKCKVSNKALPAPIEKTISKAKGQPREPQVCTLPPSREEMTKNQVSLSCAVKGFYPSDIAVEWESNGQPENNYKTTPPVLDSDGSFFLVSKLTVDKSRWQQGNVFSCSVMHEALHNRFTQKSLSLSPGK
notes: also called Fv-(Fc)2, VH G44C, F122C / VL Q100C, S121C
As for B8, in experiment [1], the Kd was 0.393 nM, the koff came to 0.000107 s⁻¹ and the kon came to 273000 M⁻¹ s⁻¹.

B9: pertuzumab (antibody, V domains shown)
VH: EVQLVESGGGLVQPGGSLRLSCAASGFTFTDYTMDWVRQAPGKGLEWVADVNPNSGGSIYNQRFKGRFTLSVDRSKNTLYLQMNSLRAEDTAVYYCARNLGPSFYFDYWGQGTLVTVSS
VL: DIQMTQSPSSLSASVGDRVTITCKASQDVSIGVAWYQQKPGKAPKLLIYSASYRYTGVPSRFSGSGSGTDFTLTISSLQPEDFATYYCQQYYIYPYTFGQGTKVEIK
With B9, in experiment [5], the Kd is 322 nM, the koff stood at 0.0154 s⁻¹ and the kon came to 47900 M⁻¹ s⁻¹.
